Experiments:
[1] = system: heme-activated endothelial cells (HUVECs and HPMECs); assay: Endothelium-on-a-chip: sickle RBC adhesion to heme-activated endothelial cells under hypoxia; type: cell-based, human; conditions: 5 μM, N=13 subjects
Experimental: The assembled microchannels are rinsed serially with PBS, 100% ethanol, and GMBS following a 20-minute incubation. Thereafter, another washing step is performed using 100% ethanol and PBS before loading the microchannels with a fibronectin solution at a concentration of 0.2 mg/mL. Fibronectin-loaded microchannels are incubated at 37° C. for 1 hour for complete protein immobilization on the GMBS-functionalized surface. To prepare the endothelialized microchannels, human endothelial cells are seeded into fibronectin-coated microchannels at a density of 4×10^6 cells/mL and incubated for 2 hours at 37° C. and 5% CO2 to allow cell attachment and spreading, while replacing the culture medium in the microchannels every hour.
The activating agents (e.g., heme or TNF-α) are then injected into the microchannels in a serum-free medium and incubated for a pre-determined period for activation to take place. Before using the activated endothelial cells, the microfluidic channels are rinsed for at least 2 times with serum-free medium.
When using blood samples collected in Ethylenediaminetetraacetic acid (EDTA) containing vacutainers, the blood samples are first centrifuged and washed three times with PBS to isolate blood cells from plasma. When in contact with adherent endothelial cells, EDTA will induce cell detachment by inhibiting Ca^2+ ions that are necessary for cell adhesion through integrins. […]

[2] = target: Recombinant human ICAM-1 (Homo sapiens, UniProt P05362); assay: Microfluidic flow adhesion of HbSS RBCs to immobilized ICAM-1, inhibition experiments; type: cell-based
Recombinant human ICAM-1, sequence (P05362 28-532): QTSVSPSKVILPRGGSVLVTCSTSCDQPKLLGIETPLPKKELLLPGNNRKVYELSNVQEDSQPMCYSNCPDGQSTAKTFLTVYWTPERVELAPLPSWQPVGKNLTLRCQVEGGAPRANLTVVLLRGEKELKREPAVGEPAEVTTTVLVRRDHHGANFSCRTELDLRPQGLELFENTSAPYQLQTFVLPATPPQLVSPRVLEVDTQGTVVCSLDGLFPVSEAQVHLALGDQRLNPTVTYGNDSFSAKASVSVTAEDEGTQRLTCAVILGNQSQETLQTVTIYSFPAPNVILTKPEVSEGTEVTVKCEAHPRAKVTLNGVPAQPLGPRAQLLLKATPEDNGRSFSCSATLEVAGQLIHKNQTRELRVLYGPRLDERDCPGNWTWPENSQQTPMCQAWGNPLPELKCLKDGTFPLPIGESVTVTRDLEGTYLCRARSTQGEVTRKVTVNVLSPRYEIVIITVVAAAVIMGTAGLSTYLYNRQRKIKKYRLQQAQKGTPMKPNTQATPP
Experimental: ICAM-1 functionalized microchannels of the microfluidic device were connected to blood-containing syringes through 40-cm inlet tubing. A total of […] of whole blood sample was perfused into the microchannels at an approximate shear stress of 1 dyne/cm^2, corresponding to the typical shear stress observed in postcapillary venules, via a constant displacement syringe pump (New Era NE-300; New Era Pump Systems, Farmingdale, N.Y.). To remove the nonadherent cells, another syringe filled with wash buffer (1% bovine serum albumin and 0.09% sodium azide in 13 phosphate buffered saline [PBS]) was connected to the microchannels, and the buffer solution was injected at […], corresponding to a wall shear stress of 1 dyne/cm^2, until all nonadherent cells had been cleared. Phase-contrast images of the microchannel surface were obtained using an inverted microscope at 203. Quantification of ICAM-1-adherent RBCs was performed manually using Adobe Photo-shop CS5 (Adobe, San Jose, Calif.) within a rectangular field of view (fov) with a surface area of 32 mm^2.
For the inhibition studies, whole HbSS blood samples were mixed with a monoclonal mouse antibody against human α4β1 or LFA-1 at a final antibody concentration of […] and incubated at 37° C. for 1 hour prior to the adhesion experiments. As a control, samples were treated with the same concentration of isotype-control mouse immunoglobulin G1 for the same duration. Anti-human LFA-1 antibody and the isotype-control mouse immunoglobulin G were from BioLegend (San Diego, Calif.). Anti-human α4β1 antibody was purchased from Abcam (Cambridge, Mass.). To block the β2-associated adhesion pathways, a recombinant human β2 protein solution (Novus Biologicals, Centennial, Colo.) was perfused into ICAM-1-functionalized microchannels and incubated for 1 hour at 37° C. Before starting the adhesion experiments, the microchannels were rinsed 3 times with PBS. Similarly, to test the inhibitory effect of fibrinogen (Enzo Life Sciences, Farmingdale, N.Y.) or low molecular weight heparin (LMWH; AMSBIO, Cambridge, Mass.), ICAM-1-functionalized microchannels were injected with fibrinogen (range, 1-20 mg/mL) or LMWH (range, 0.1-5 mg/mL). After an hour at 37° C., the microchannels were rinsed with PBS 3 times, and adhesion was assessed as above.
Minitab 19 (Minitab, State College, Pa.) was used to analyze the results. A normality test was performed to determine whether the variables were normally distributed. Because of the largely non-normally distributed variables, Mann-Whitney U tests were used to compare 2 groups, and Kruskal-Wallis tests with Dunn's correction were used to compare multiple groups, unless stated otherwise. K-means clustering analysis was performed to identify distinct subject subpopulations based on hemolysis biomarkers. Through-out this article, the error bars represent±standard error of the mean (SEM). P<0.05 was considered statistically significant.

[3] = target: T1, P-selectin (Homo sapiens, UniProt P16109); set-up: host or cells: patients with SCD (endogenous protein in vivo); conditions: infused monthly, patients with SCD; cited from earlier work
T1 sequence (P16109 42-830): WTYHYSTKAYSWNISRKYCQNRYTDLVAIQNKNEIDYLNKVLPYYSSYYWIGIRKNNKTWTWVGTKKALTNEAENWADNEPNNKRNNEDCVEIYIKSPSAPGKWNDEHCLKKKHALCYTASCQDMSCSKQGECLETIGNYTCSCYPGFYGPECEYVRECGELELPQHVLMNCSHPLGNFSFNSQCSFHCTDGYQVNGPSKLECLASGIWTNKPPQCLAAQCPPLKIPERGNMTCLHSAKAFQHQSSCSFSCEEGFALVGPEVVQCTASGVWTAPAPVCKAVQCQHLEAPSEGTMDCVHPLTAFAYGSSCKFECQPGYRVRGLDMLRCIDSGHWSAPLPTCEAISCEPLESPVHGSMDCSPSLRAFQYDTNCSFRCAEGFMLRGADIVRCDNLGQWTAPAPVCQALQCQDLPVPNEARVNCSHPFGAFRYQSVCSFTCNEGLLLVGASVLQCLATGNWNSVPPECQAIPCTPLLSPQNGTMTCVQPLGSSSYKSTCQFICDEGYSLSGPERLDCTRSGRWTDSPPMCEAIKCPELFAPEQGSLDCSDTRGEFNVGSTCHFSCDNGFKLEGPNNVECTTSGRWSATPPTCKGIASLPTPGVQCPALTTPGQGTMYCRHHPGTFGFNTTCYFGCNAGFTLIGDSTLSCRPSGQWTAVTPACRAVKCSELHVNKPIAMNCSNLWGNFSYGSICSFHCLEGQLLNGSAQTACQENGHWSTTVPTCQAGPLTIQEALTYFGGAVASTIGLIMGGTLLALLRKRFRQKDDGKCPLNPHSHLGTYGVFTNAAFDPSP

[4] = target: T1, P-selectin; assay: Microfluidic whole blood assay of leukocyte adhesion to immobilized P-selectin, microchannels pre-treated with drug (inhibition experiments); type: cell-based
Experimental: (§1) Microfluidic devices were fabricated using a lamination technique. Each microfluidic device contained 3 identical microchannels with a height of 50 μm (FIG. 6A), which were designed to recapitulate volume and flow of post-capillary venules. The microchannels were functionalized with recombinant human P-selectin (25 μg/mL) and blocked with 2% bovine serum albumin (BSA) to pre-vent non-specific adhesion. After tubing assembly, whole blood samples were mixed with Hanks' buffer modified with calcium and magnesium (1:1 v/v), and 15 μL of the diluted whole blood was injected into the microchannels using New Era NE-300 syringe pump system (Farming-dale, N.Y.) at an approximate shear rate of 1 dyne/cm^2. Non-adherent cells were rinsed out by flowing Hanks' buffer. Phase-contrast images of the microchannels with adherent leukocytes were recorded at 10× with an inverted microscope (Olympus IX83) and a camera (EXi Blue EXI-BLU-RF-M-14-C), and adherent leukocytes were manually quantified with Adobe Photoshop software (San Jose, Calif.) in a 32 mm^2 area.
Crizanlizumab (ADAKVEO®, SEG101) stock solution (10 mg/mL) was donated by Novartis (Basel, Switzerland). For the inhibition experiments, P-selectin immobilized-microchannels were pre-treated with Hanks buffer as vehicle control, or Crizanlizumab with graded concentrations of 1, 10, 100 μg/mL, or 1 mg/mL at 37° C. for 30 min. There-after, the adhesion assay was performed. Human IgG2 (Sigma Aldrich, St. Louis, Mo.), at 100 μg/mL, was included as the isotype control for Crizanlizumab. For the detachment experiments, modified microchannels with individual inlets for separately injecting blood and drug-containing buffer were designed to allow transition from washing buffer to Crizanlizumab during rinsing. Two synchronous pumps connected to these inlets were programmed such that Crizanlizumab at 10 μg/mL was injected into microchannels after Hanks buffer without a disruption in shear rate. The programmed flow rates of the two synchronous pumps over the course of the experiment are shown in FIG. 7A, which insured a constant shear rate in the microchannels. Cell behaviors were also continuously recorded. Phase contrast images of the adherent leukocytes were collected during Hanks's buffer rinse and Crizanlizumab flow for comparison.
Leukocyte adhesion data were reported as mean±standard error of the mean (SEM). Clinical variables of the study population were re-ported as mean±standard deviation (SD). Statistical analyses were per-formed with Minitab (Minitab Inc., State College, Pa.). A test for normality was initially performed on relevant variables. A paired t-test was per-formed to compare paired groups before and after Crizanlizumab treatment. Statistical significance was determined based on a p-value<0.05 (p<0.05).

[5] = target: T1, P-selectin; assay: Detachment experiments: drug flowed over leukocytes already adherent to immobilized P-selectin; type: cell-based
Experimental: as §1
Crizanlizumab (ADAKVEO®, SEG101) stock solution (10 mg/mL) was donated by Novartis (Basel, Switzerland). For the inhibition experiments, P-selectin immobilized-microchannels were pre-treated with Hanks buffer as vehicle control, or Crizanlizumab with graded concentrations of 1, 10, 100 μg/mL, or 1 mg/mL at 37° C. for 30 min. There-after, the adhesion assay was performed. Human IgG2 (Sigma Aldrich, St. Louis, Mo.), at 100 μg/mL, was included as the isotype control for Crizanlizumab. For the detachment experiments, modified microchannels with individual inlets for separately injecting blood and drug-containing buffer were designed to allow transition from washing buffer to Crizanlizumab during rinsing. […] Cell behaviors were also continuously recorded. […]
Leukocyte adhesion data were reported as mean±standard error of the mean (SEM). […] Statistical significance was determined based on a p-value<0.05 (p<0.05).

[6] = pre-treatment 1 μg/mL, HbSS on-transfusion samples, N=8
[7] = pre-treatment 10 μg/mL, HbSS on-transfusion samples, N=8
[8] = pre-treatment 1 mg/mL, HbSS on-transfusion samples, N=8

## Cc1ccc(NC(=O)c2ccc(CN3CCN(C)CC3)cc2)cc1Nc1nccc(-c2cccnc2)n1 [imatinib]
[1]
  Sickle RBC adhesion to heme-activated endothelial cells (mean adhesion±SEM): 171±30

## fibrinogen
[2]; microchannels incubated with 1 mg/mL
  Effect on RBC adhesion to ICAM-1: did not inhibit RBC adhesion
[2]; microchannels incubated with 5 mg/mL
  Adhesion blocked: about 50%
[2]; microchannels treated with 1, 5, 10, 20 mg/mL, n=5
  Effect on RBC adhesion to ICAM-1: significantly decreased RBC adhesion in a concentration-dependent manner

## low molecular weight heparin [LMWH]
[2]; preincubation of microfluidic channels (not blood)
  Effect on RBC adhesion to ICAM-1: had no effect
[2]; pretreatment of blood samples at 0.1 mg/mL
  Inhibition of RBC adhesion to ICAM-1: 0.80%
[2]; whole blood samples treated (1:1 v/v) at 0.1, 1, and 5 mg/mL
  Effect on RBC adhesion to ICAM-1: significantly blocked RBC adhesion to ICAM-1

## recombinant human β2 protein: recombinant human β2 protein solution (Novus Biologicals) to block β2-associated adhesion pathways
[2]; microchannels treated with protein 1 hour 37° C., 5 experiments
  Effect on HbSS RBC adhesion to immobilized ICAM-1: No significant reduction

B1: Crizanlizumab: humanized monoclonal antibody against P-selectin (antibody, chains of the INN, looked up, V domains shown)
VH: QVQLVQSGAEVKKPGASVKVSCKVSGYTFTSYDINWVRQAPGKGLEWMGWIYPGDGSIKYNEKFKGRVTMTVDKSTDTAYMELSSLRSEDTAVYYCARRGEYGNYEGAMDYWGQGTLVTVSS
VL: DIQMTQSPSSLSASVGDRVTITCKASQSVDYDGHSYMNWYQQKPGKAPKLLIYAASNLESGVPSRFSGSGSGTDFTLTISSLQPEDFATYYCQQSDENPLTFGGGTKVEIK
[3]
  Annual rate of VOC: reduced the annual rate of VOC
[4]; isotype control comparison, 100 μg/mL, N=3
  Leukocyte adhesion (adherent leukocytes, mean±SEM): 596±221
[4]; [6]
  Leukocyte adhesion (adherent leukocytes, mean±SEM): 1535±258
  Leukocyte adhesion, range: 257-2732
[4]; [7]
  Leukocyte adhesion (adherent leukocytes, mean±SEM): 1057±325
  Leukocyte adhesion, range: 195-2948
[4]; pre-treatment 100 μg/mL, 37° C. 30 min, HbSS on-transfusion samples, N=8, 32 mm^2 area, 1 dyne/cm^2
  Leukocyte adhesion (adherent leukocytes, mean±SEM): 703±161
[4]; pre-treatment 100 μg/mL, HbSS on-transfusion samples, N=8
  Leukocyte adhesion, range: 131-1474
[4]; [8]
  Leukocyte adhesion (adherent leukocytes, mean±SEM): 587±168
  Leukocyte adhesion, range: 81-1403
[4]; pre-treatment 1 mg/mL, non-transfusion individuals (on-hydroxyurea or supportive care), N=8
  Leukocyte adhesion (adherent leukocytes, mean±SEM): 179±79
[4]; pre-treatment 1 mg/mL, non-transfusion individuals, N=8
  Leukocyte adhesion, range: 39-691
[5]; post-treatment 10 μg/mL after leukocytes adhered
  Effect of post-treatment on adherent leukocytes: detachment of rolling leukocytes whereas firmly attached cells remained adherent
[5]; post-treatment 10 μg/mL, N=6
  Leukocyte adhesion after introducing drug, range: 58-2388
[5]; post-treatment 10 μg/mL, N=6 (4 on-transfusion)
  Leukocyte adhesion after introducing drug into the microchannels (mean±SEM): 719±354
